Test results as given in publication PMC13216289.

B1: Ab17 (antibody, V domains shown)
VH: QVQLRESGPSSLKPSQTLSLTCAVSGFSLSTYAVGWVRQAPGKALEWVGDITSSGDTFYNPALKSRFSITKDNSKNQVSLSVGSVTPEDTATFYCTRLTCGDDCSTAWHNFDAWGQGLLVTVSS
VL: SYELTQPTSVSVALGQTAKITCSGDLLDVQYTQWYQQKPGQGPVRVIYKDSERPSGISDRFSGSSSGKTATLIISGAQTEDEADYYCQSTDSSQYGIFGRGTTLTVL
B2: Ab49 (antibody, V domains shown)
VH: QVQLRESGPSLVKPSQTLSLTCTVSGFSLTNYAVGWVRQAPGKAIQSLSIISTTGDTYYNPALKSRLSITKDNSKSQVSLSVSSVAPEDTATYYCVKFCGNADSAGHGWGCDYGDNENWGQGLLVTVSS
VL: SYELTQPTSVSVALGQTAKITCSGDLLDEQYTQWYQQKPGQGPVRVIYKDSERPSGISDRFSGSSSGKTATLTISGAQTEDEADYYCQSFYSSTDPVFGSGTTLTVL

Target: FMDV C/PHI/3/1994 virus (Foot-and-mouth disease virus C/PHI/3/1994)

Binder | VNT: minimum antibody concentration that neutralises C/PHI/3/1994 virus [nM]
B1 | 213
B2 | 1150
